Data as given in publication PMC6134095.

Experiments:
[1] = target: FITC-labeled FtsB 64–87 peptide (E. coli) (UniProt P0A6S5); experiment: fluorescence polarisation; 10 nM FITC-labeled FtsB 64–87 peptide, FtsQ in threefold dilutions from 800 µM to 0.5 nM; 10 mM HEPES pH 7.4, 150 mM NaCl, 0.1% Tween 20; 1 h at room temperature
[2] = target: FtsQ (58–276), periplasmic domain of E. coli FtsQ (Escherichia coli strain K-12) (UniProt P06136); experiment: SPR; FtsQ (58–276) immobilised on a CM5 chip by amide coupling (~1,000 RU); Biacore T200, 20°C; 10 mM HEPES pH 7.4, 150 mM NaCl, 0.4% glycerol; analytes injected 120 s, 600 s dissociation, 1:2 dilution series, triplicate
FtsQ (58–276), periplasmic domain of E. coli FtsQ (Escherichia coli strain K-12), sequence (P06136 58-276): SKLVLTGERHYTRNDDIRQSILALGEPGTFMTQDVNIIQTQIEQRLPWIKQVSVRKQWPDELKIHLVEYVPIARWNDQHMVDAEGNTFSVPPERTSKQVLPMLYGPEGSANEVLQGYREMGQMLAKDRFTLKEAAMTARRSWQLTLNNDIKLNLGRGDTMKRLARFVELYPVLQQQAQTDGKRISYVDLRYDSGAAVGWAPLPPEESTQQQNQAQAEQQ

FtsN (58–320) plus FtsB (22–103), bound together, sequence (A7ZQJ2 22-103): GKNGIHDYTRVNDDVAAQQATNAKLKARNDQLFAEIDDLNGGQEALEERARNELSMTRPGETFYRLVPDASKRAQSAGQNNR
FtsN (58–320) plus FtsB (22–103), bound together, sequence (P29131 57-319): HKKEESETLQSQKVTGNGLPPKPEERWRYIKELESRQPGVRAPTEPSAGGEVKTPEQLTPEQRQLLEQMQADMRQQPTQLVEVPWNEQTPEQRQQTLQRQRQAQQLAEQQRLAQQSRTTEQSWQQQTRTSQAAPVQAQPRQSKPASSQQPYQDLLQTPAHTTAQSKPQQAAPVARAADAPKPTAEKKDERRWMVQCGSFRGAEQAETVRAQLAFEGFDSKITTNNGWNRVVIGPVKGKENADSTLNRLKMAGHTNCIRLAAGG
FtsN (57–319), periplasmic domain of E. coli FtsN, sequence (P29131 57-319): as above

## FtsQ (58–276), periplasmic domain of E. coli FtsQ (from UniProt P06136 58-276) (domain or fragment)
[1]
  Kd: 9500 nM

## FtsB F84A (from UniProt P0A6S5 22-103) (domain or fragment)
[2]
  fold reduction of binding against wild-type FtsB: 10 fold

## FtsB R72A (from UniProt P0A6S5 22-103) (domain or fragment)
[2]
  fold reduction of binding against wild-type FtsB: 10 fold

## FtsN (58–320) plus FtsB (22–103), bound together (from UniProt P0A6S5 22-103; P29131 57-319)
[2]
  Kd of FtsB and FtsN bound together: 120 nM

## FtsN (57–319), periplasmic domain of E. coli FtsN (from UniProt P29131 57-319) (domain or fragment)
[2]
  Kd: 2500 nM
